For test [1], the target named is pyruvate kinase M2 (PKM2), endogenous (human (endogenous in A549 and H1299)) (UniProt P14618). As to the kind of experiment: cross-linking; H1299 cell lysates (with Flag-CIP2A or siCIP2A) treated with 0.01% glutaraldehyde at 37 °C for 9 min, SDS-PAGE, western blot with anti-PKM2. For orientation: In western blotting, separated proteins are transferred to a membrane and probed.

Test [2] concerns the target HA-PKM2 (wild type), expressed in 293T cells (human) (UniProt P14618). As to the kind of experiment: SEC; cell lysates (A549, H1299 or transfected 293T; with shCIP2A, pCDH-CIP2A or Flag-CIP2A) on Superdex 200 Increase 10/300 GL, 50 mM sodium phosphate, 0.15 M NaCl, pH 7.2; fractions analysed by western blot; both exogenous and endogenous PKM2 included. In general terms: Size exclusion chromatography separates by hydrodynamic size, large species first.

Test [3] has as its target purified recombinant WT PKM2 expressed in bacteria (human) (UniProt P14618). As to the kind of experiment: SEC; purified recombinant WT, S287A and S287D PKM2 expressed in bacteria; size exclusion chromatography with molecular mass standards.

Sequence of pyruvate kinase M2 (PKM2), endogenous, P14618 1-531 (enzyme; other documents disagree on this pair) (P14618 whole entry): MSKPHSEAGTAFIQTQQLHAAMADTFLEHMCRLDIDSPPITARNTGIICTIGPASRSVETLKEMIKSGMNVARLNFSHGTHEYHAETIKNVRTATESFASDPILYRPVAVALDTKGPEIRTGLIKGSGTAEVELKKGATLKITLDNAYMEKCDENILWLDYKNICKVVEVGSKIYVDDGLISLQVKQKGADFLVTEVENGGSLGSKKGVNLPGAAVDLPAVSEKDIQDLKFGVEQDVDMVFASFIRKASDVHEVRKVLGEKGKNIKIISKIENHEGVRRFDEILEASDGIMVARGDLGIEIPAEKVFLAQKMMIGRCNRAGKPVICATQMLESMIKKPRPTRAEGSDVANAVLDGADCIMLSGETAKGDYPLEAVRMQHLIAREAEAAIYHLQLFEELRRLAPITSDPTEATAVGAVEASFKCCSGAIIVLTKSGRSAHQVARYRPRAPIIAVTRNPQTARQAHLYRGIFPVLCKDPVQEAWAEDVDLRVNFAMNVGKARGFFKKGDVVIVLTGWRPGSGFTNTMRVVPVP
Sequence of purified recombinant WT PKM2 expressed in bacteria, P14618 1-531 (enzyme; other documents disagree on this pair) (P14618 whole entry): as above
Sequence of HA-PKM2 (wild type), expressed in 293T cells, P14618 1-531 (enzyme; other documents disagree on this pair) (P14618 whole entry): as above

What is called stoichiometry N is a count of units in the complex or per binding partner. In turn, “pyruvate kinase M2 (PKM2), endogenous, P14618 1-531 (enzyme; other documents disagree on this pair)” showed a stoichiometry N in test [1] of 2.
With “HA-PKM2 (wild type), expressed in 293T cells, P14618 1-531 (enzyme; other documents disagree on this pair)”, the stoichiometry N in test [2] stood at 2.
As to “purified recombinant WT PKM2 expressed in bacteria, P14618 1-531 (enzyme; other documents disagree on this pair)”, the stoichiometry N in test [3] amounted to 2.
